Data reported in the nanobody polyreactivity screen of Harvey et al. (2022).

Assay: yeast display, Sf9 membrane polyspecificity reagent, FACS + sequencing; frameworks hold sequencing errors
Summary of the method: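 Polyreactivity labels are assigned by the sorting gate from which each nanobody was recovered. The gates were low and high (top ~1%), set on anti-HA fluorescence for expression and streptavidin fluorescence for reagent binding. Before sorting, galactose-induced (36–48 hours) yeast display cells were stained for 1 hour at 4 °C with 10% biotinylated, detergent-solubilized Sf9 membrane reagent.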
With “QVQLVESGGGLVQAGGSLRLSCAASGITFGYYAMGWYRQAPGKERENVAAITRRGGSTYYADSVKGRFTISRDNAKNTVYLQMNSLKPEDTAVYYCAADSYRYWFIEDNYWGQGTQVTVSS” the “polyreactivity (PSR sort gate)” value was “high polyreactivity”. For “QVQLVESGGGLVQAGGSLRLSCAASGITFHPYAKGWYRQAPGNEREFVAVISFRGGRTYYADSVKGRFTISRDNAKNNVYLQMNSLKPEDTAVYYCAAQYVSRRYSRYNYWGQGTQVTVSS”, the “polyreactivity (PSR sort gate)” value was “high polyreactivity”. With “QVQLVESGGGLVQAGGSLRLSCAASGITFIGYAMGWYRQAPGKERELVASITSGANTNYADSVKGRFTISRDNAKNTVYLQMNSLKPEDTAVYYCAAPEHGTYANILGEPLDYWGQGTQVTVSS” the “polyreactivity (PSR sort gate)” value was “low polyreactivity”. In the case of “QVQLVESGGGLVQAGGSLRLSCAASGITFITYTMGWYRQEPGKERELVAGISSGGSTYYADSVKGRFTISRDNAKNTVYLQMNSLKPEDTAVYYCAAEFAGWGYYWFDYWGQGTQVTVSS”, the “polyreactivity (PSR sort gate)” value is reported as “high polyreactivity”. With “QVQLVESGGGLVQAGGSLRLSCAASGITFITYVMGWYRQAPGKERELVAAISLRGGRTSYADSVKGRFTISRDNAKNTVYLQMNSLKPEDTAVYYCAARAYYTRYDYWGQGTQVTVSS” the “polyreactivity (PSR sort gate)” value was “high polyreactivity”. In the case of “QVQLVESGGGLVQAGGSLRLSCAASGITFIYNAMGWYRQAPGKERELVATINDGGSTNYADSVKGRFTISRDNAKNTVYLQMNSLKPEDTAVYYCNADGGPYGAVGKSDYWGQGTQVTVSS”, the “polyreactivity (PSR sort gate)” value is reported as “low polyreactivity”. For “QVQLVESGGGLVQAGGSLRLSCAASGITFIYYDMGWYRQAPGKEREFVAAINYRGTSTYYADSVKGRFTISRDNAKNTVYLQMNSLKPEDTAVYYCAARLRQTGGDRLGYWGQGTQVTVSS”, the “polyreactivity (PSR sort gate)” value was “high polyreactivity”. With “QVQLVESGGGLVQAGGSLRLSCAASGITFKFNAMGWYRQAPGKERELVAAISVRGGRTYYADSVKGRFTISRDNAKNTVYLQMNSLKPEDTAVYYCAATDWFYSYYLGYGYGYWGQGTQVTVSS” the “polyreactivity (PSR sort gate)” value was “high polyreactivity”. For “QVQLVESGGGLVQAGGSLRLSCAASGITFKPNAMGWYRQAPGKERELVAALDTGGSTNYADSVKGRFTISRDNEKNTVYLQMNSLKPEDTEVYYCAAPYQDRDLHVSYSTYEGGYWGQGTQVTVSS”, the “polyreactivity (PSR sort gate)” value was “low polyreactivity”. In the case of “QVQLVESGGGLVQAGGSLRLSCAASGITFKYNAMGWYRQAPGKERELVAAISSGGNTYYADSVKGRFTISRDNAKNTVYLQMNSLKPEDTAVYYCAAPSYDTLWHDYWGQGTQVTVSS”, the “polyreactivity (PSR sort gate)” value is reported as “low polyreactivity”. For “QVQLVESGGGLVQAGGSLRLSCAASGITFKYYAMGWYRQAPGKERELVAAISRGGGSTYYADSVKGRFTISRDNAKNTVYLQMNSLKPEDTAVYYCNAVFYSFIQSDYWGQGTQVTVSS”, the “polyreactivity (PSR sort gate)” value was “high polyreactivity”. With “QVQLVESGGGLVQAGGSLRLSCAASGITFKYYAMGWYRQAPGKESELVAAISRSGSSTYYADSVKGRFTISRDNAKNTVYLQINSLTPEDTAVYYCAADWKSKRTDKYDSWGQGTQVTVSS” the “polyreactivity (PSR sort gate)” value was “high polyreactivity”. For “QVQLVESGGGLVQAGGSLRLSCAASGITFKYYTMGWYRQAPGKERELVAAISRSGGSTYYADSVKGRFTISRDNAKNTVYLLMNSLKPEDTAVYYCAGERGAYRGVTFTYGYWGQGTQVTVSS”, the “polyreactivity (PSR sort gate)” value was “high polyreactivity”. For “QVQLVESGGGLVQAGGSLRLSCAASGITFKYYVMGWYRQAPGKERELVARITRRSGSTYYADSVKGRFTISRDNAKNTVYLQMNSLKPEDTAVYYCAASPHSRSDYGYWGQGTQVTVSS”, the “polyreactivity (PSR sort gate)” value was “high polyreactivity”. With “QVQLVESGGGLVQAGGSLRLSCAASGITFLNYAMGWSRQEPGKERELVAAITSGGSTYYADSVKGRFTITRDNAKNTVYLQMNSLKPEDTAVYYCAADGDSLPYSFWWQIRLDYWGQGTVVTVSS” the “polyreactivity (PSR sort gate)” value was “low polyreactivity”. With “QVQLVESGGGLVQAGGSLRLSCAASGITFLRYAMGWYRQAPGKERELVATIRTGGTTNYADSVKGRFTISRDNAKNTVYLLMISLKPEDTAVYYCAVDWSRQAHKFNYWGQGTQVTVSS” the “polyreactivity (PSR sort gate)” value was “high polyreactivity”. For “QVQLVESGGGLVQAGGSLRLSCAASGITFLVYVMGWYIQAPGKERELVAAISSGGSTYYADSVKGRFTISRDKAKNTVYLQMNSLKPEDTAVYYCAAERKLYGLYDYWGQGTQVTVSS”, the “polyreactivity (PSR sort gate)” value was “low polyreactivity”. With “QVQLVESGGGLVQAGGSLRLSCAASGITFLWNVMGWYRQAPGKERELVATITSIGGITNYADSVKGRFTISRDNAKNTVYLQMNSLKPEDTAVYYCARDDRDIRGESGREGFLYDYWGQGTQVTVSS” the “polyreactivity (PSR sort gate)” value was “low polyreactivity”. With “QVQLVESGGGLVQAGGSLRLSCAASGITFNPNAMGWYRQAPGKERELVAVITYRGGSTYYADSVKGRFTISRDNAKNTVYLQMNSLKPEDTAVYYCAAQYIGWHLYWYDYWGQGTQVTVSS” the “polyreactivity (PSR sort gate)” value was “low polyreactivity”. For “QVQLVESGGGLVQAGGSLRLSCAASGITFNRYSMGWYRQAPGKERELVARISLRGGNTYYADSVKGRFTISRDNAKNTVYLQMNSLKPEDPAVYYCNADLYRQYASRYHYWGQGTQVTVSS”, the “polyreactivity (PSR sort gate)” value was “high polyreactivity”. With “QVQLVESGGGLVQAGGSLRLSCAASGITFNSYAMGWYRQAPGKERELVAAISGSGSSTYYADSVKGRFTISRDNAKNTVYLQMNSLKPEDTAVYYCAATGYSSWTYYTHEYWGQGTQVTVSS” the “polyreactivity (PSR sort gate)” value was “low polyreactivity”. For “QVQLVESGGGLVQAGGSLRLSCAASGITFNSYAMGWYRQAPGKERELVAAISWSGGSTYYADSVKGRFTISRDNAKNTVYLQMNSLKPEDTAVYYCNAEYRYYQKTPGRYTNVEYDYWGQGTQVTVSS”, the “polyreactivity (PSR sort gate)” value was “low polyreactivity”. For “QVQLVESGGGLVQAGGSLRLSCAASGITFNTYAMGWYRHAPGKERELVAVITWSDGGTYYADSVKGRFTISRDNAKNTVYLQMNSLKPEDTAVYYCAADYDWGYDYWGQGTQVTVSS”, the “polyreactivity (PSR sort gate)” value was “low polyreactivity”. For “QVQLVESGGGLVQAGGSLRLSCAASGITFNTYAMGWYRQAPGKERELVAVITWSDGGTYYADSVKGRFTISRDNAKNTVYLQMNSLKPEDTAVYYCAADYYWGYDYWGQGTQVTVSS”, the “polyreactivity (PSR sort gate)” value was “low polyreactivity”. For “QVQLVESGGGLVQAGGSLRLSCAASGITFPANAMGWYRQAPGKERELVADISESDGSTYYADSVKGRFTISLDNAKNTVYLQMNSLKPEDTAVYYCNAEWTSFDWGQGTQVTVSS”, the “polyreactivity (PSR sort gate)” value was “low polyreactivity”. For “QVQLVESGGGLVQAGGSLRLSCAASGITFPANAMGWYRQAPGKQWELVAAISSYGGSTYYADSVKGRFTISRDNEKNTVDLQMNSLKPEDTAVYYCAAYLSSLGRKYYYWGQGTQVTVSS”, the “polyreactivity (PSR sort gate)” value was “high polyreactivity”. In the case of “QVQLVESGGGLVQAGGSLRLSCAASGITFPRYTMGWYRQAPGTERELVAAISSGGSTYYADSVKGRFTISRDNAKNTVYLQMNSLKPEDTAVYYCNAEVPYWYYIYDYWGQGTQVTVSS”, the “polyreactivity (PSR sort gate)” value is reported as “high polyreactivity”. In the case of “QVQLVESGGGLVQAGGSLRLSCAASGITFPRYVMGWYRQAPGKEREFVAAINYSGGRTYYADSVKGRFTISRDNAKNTVYLQMNSLKPEDTAVYYCAVDLHVWPFWYDYWGQGTQVTVSS”, the “polyreactivity (PSR sort gate)” value is reported as “high polyreactivity”. In the case of “QVQLVESGGGLVQAGGSLRLSCAASGITFPYYAMGWYRQAPGKERELVAAISLSGGTTYYADSVKGRFTISRDNAKNTVYLQMNSLKPDDTAVYYCAARSSKFVTSNRYDYWGQGTQVTVSS”, the “polyreactivity (PSR sort gate)” value is reported as “high polyreactivity”. For “QVQLVESGGGLVQAGGSLRLSCAASGITFPYYAMGWYRQAPGKERELVAAITTGGGSTYYADSVKGRFTISRDNAKNTVYLQMNSLKPEDTAVYYCAAANLRARTGPRRGYEYWGQGTQVTVSS”, the “polyreactivity (PSR sort gate)” value was “high polyreactivity”. For “QVQLVESGGGLVQAGGSLRLSCAASGITFPYYVMGWYRQAPGKERELVAAISKSVGRTYYADSVKGRFTISRDNAKNTVYLQMNSLKPEDTAVYYCAAYSSYYVHRFQHYDYWGQGTQVTVSS”, the “polyreactivity (PSR sort gate)” value was “high polyreactivity”. In the case of “QVQLVESGGGLVQAGGSLRLSCAASGITFQRYVLGWYRQAPGKERELVAAISFTASSTYYADSVKGRFTISRDYAKKTVYLQMNSLKPEDTAVYYCAADGSVPKYVPYPRYYGYGYWGQGTQVTVSS”, the “polyreactivity (PSR sort gate)” value is reported as “high polyreactivity”. With “QVQLVESGGGLVQAGGSLRLSCAASGITFQYYAMGWYRQAPGKERELFARISSSGGRTFYADSVKGRFTISRDNAKNTVYLQMNSLKQEDTAVYYCAAGSLSLSNSTVWFEYDYWGQGTQVSVSS” the “polyreactivity (PSR sort gate)” value was “high polyreactivity”. With “QVQLVESGGGLVQAGGSLRLSCAASGITFQYYAMGWYRQAPGKERELVAAISSGGSTYYADSVKGRFTISRDNAKNTVYLQMNSLKPEDTAVYYCAAKRVFFGLNYDYWGQGTQVTVSS” the “polyreactivity (PSR sort gate)” value was “high polyreactivity”. In the case of “QVQLVESGGGLVQAGGSLRLSCAASGITFRANAKGWYRQAPGKERELVAAISARGGSTYYADSVKGRFTISRDNAKNTVYLQMNSLNPEDTAVYYCAKELSQGMRYDYWGQGTQVTVSS”, the “polyreactivity (PSR sort gate)” value is reported as “high polyreactivity”. With “QVQLVESGGGLVQAGGSLRLSCAASGITFRAYVMGWYRQEPGKERELVAAINRRGGSTYYADSVKGRFTISRDNAKNTVYLQMNSLKPEDTAVYYCAAGLYSTGYTYDYWGQGTQVTVSS” the “polyreactivity (PSR sort gate)” value was “high polyreactivity”. With “QVQLVESGGGLVQAGGSLRLSCAASGITFRGYAMGWYRQAPGKERELVAAITGSGTSTYADSVKGRFTISRGNAKNTVYLQMNSLKPEDTAVYYCAADTYDPFYYGYGYWGQGTQVTVSS” the “polyreactivity (PSR sort gate)” value was “low polyreactivity”. With “QVQLVESGGGLVQAGGSLRLSCAASGITFRGYAMGWYRQAPGKERELVASITNTDSTYYADSVKGRFTISRDNAKNTVYLQMNSLKPEDTAVYYCNAEADPYSVDYDYWGQGTQVTVSS” the “polyreactivity (PSR sort gate)” value was “high polyreactivity”. In the case of “QVQLVESGGGLVQAGGSLRLSCAASGITFRKYVMGWYRPAPGKERELVAAITRGGSTNYADSVKGRFTISRDNAKNTVYLQMNSLKPEDTAVYYCATRQSWYPRWMDYWGQGTQVTVSS”, the “polyreactivity (PSR sort gate)” value is reported as “high polyreactivity”. In the case of “QVQLVESGGGLVQAGGSLRLSCAASGITFRLYAMGWYRQAPGKERELVAAISKRGGSTYYADSVKGRFTISRDNAKNTVYLQMNSLKPEDTAVYYCAADSGWEHRYDYWGQGTQVTVSS”, the “polyreactivity (PSR sort gate)” value is reported as “high polyreactivity”. For “QVQLVESGGGLVQAGGSLRLSCAASGITFRNYAMVWSRQAPGKERELVADITTGGSTYADSVKGRFTISRDNAKNTVYLQMISLNPEDTAVYYCAADRDFRTPRLYYWGQGTQVTVSS”, the “polyreactivity (PSR sort gate)” value was “low polyreactivity”. In the case of “QVQLVESGGGLVQAGGSLRLSCAASGITFRQYAMGWYRQAPGKERELVAVITSRGGTTYYAVSVKGRFTISRDNAKNTVYLQMNSLKPEDTAVYYCAARYPSYDFYYWGQGTQVTVSS”, the “polyreactivity (PSR sort gate)” value is reported as “high polyreactivity”. In the case of “QVQLVESGGGLVQAGGSLRLSCAASGITFRRKAMGWYRQAPGKERELVAAISASGTRTYYADSVKGRLTISRDNAKNTVYLQMNSLKPEDTAVYYCATRVTSRSSGFDYWGQGTQVTVSW”, the “polyreactivity (PSR sort gate)” value is reported as “high polyreactivity”.
